Columns and labels:
[1] = molecular target: the molecule itself; assay: cryo-EM structure; Eag1-CaM complex purified with Ca2+, reconstituted into 90:5:5 POPC:POPG:cholesterol liposomes with 300 mM KCl; polarized with valinomycin and exchange of the external solution to 300 mM NaCl (a smaller dataset on unpolarized vesicles too); 10 mM Tris pH 8.0
[2] = molecular target: T1, vertebrate calmodulin (CaM) (vertebrate, UniProt P0DP23 1-149); assay: as above; conditions: both partners purified
T1 construct: vertebrate calmodulin, expressed from a separate vector without a tag; source: HEK293S GnTI- cells infected with rEag1 and CaM baculoviruses, co-purified with rEag1 in the presence of Ca2+

B1: rat Eag1 with residues 773 to 886 truncated (rEag1) (natural protein, UniProt Q63472 1-962, looked up)
chain: MTMAGGRRGLVAPQNTFLENIVRRSNDTNFVLGNAQIVDWPIVYSNDGFCKLSGYHRAEVMQKSSACSFMYGELTDKDTVEKVRQTFENYEMNSFEILMYKKNRTPVWFFVKIAPIRNEQDKVVLFLCTFSDITAFKQPIEDDSCKGWGKFARLTRALTSSRGVLQQLAPSVQKGENVHKHSRLAEVLQLGSDILPQYKQEAPKTPPHIILHYCVFKTTWDWIILILTFYTAILVPYNVSFKTRQNNVAWLVVDSIVDVIFLVDIVLNFHTTFVGPAGEVISDPKLIRMNYLKTWFVIDLLSCLPYDVINAFENVDEGISSLFSSLKVVRLLRLGRVARKLDHYIEYGAAVLVLLVCVFGLAAHWMACIWYSIGDYEIFDEDTKTIRNNSWLYQLALDIGTPYQFNGSGSGKWEGGPSKNSVYISSLYFTMTSLTSVGFGNIAPSTDIEKIFAVAIMMIGSLLYATIFGNVTTIFQQMYANTNRYHEMLNSVRDFLKLYQVPKGLSERVMDYIVSTWSMSRGIDTEKVLQICPKDMRADICVHLNRKVFKEHPAFRLASDGCLRALAMEFQTVHCAPGDLIYHAGESVDSLCFVVSGSLEVIQDDEVVAILGKGDVFGDVFWKEATLAQSCANVRALTYCDLHVIKRDALQKVLEFYTAFSHSFSRNLILTYNLRKRIVFRKISDVKREEEERMKRKNEAPLILPPDHPVRRLFQRFRQQKEARLAAERGGRDLDDLDVEKGNALTDHTSANHSLVKASVVTVRESPATPVSFYPIPEQTLQATVLEVKHELKEDIKALNAKMTSIEKQLSEILRILMSRGSSQSPQDTCEVSRPQSPESDRDIFGAS
notes: rat Eag1 voltage-dependent K+ channel; construct corresponding to rat Eag1 with residues 773 to 886 truncated; Tetrameric channel (C4 symmetric up map); The C-terminal GFP-His6 tag was linked by a preScission protease site and removed; also called Eag channel; Eag Kv channel; not shown: GFP, C-terminal, cleaved; His6, C-terminal, cleaved
Question: Does B1 bind [1]?
Answer: binds

Question: Does B1 bind [2]?
Answer: binds

Source: PMC9674223, “Voltage-sensor movements in the Eag Kv channel under an applied electric field” (Proceedings of the National Academy of Sciences of the …, 2022)
